Measured values taken from patent US20230265183A1 (MABWELL SHANGHAI BIOSCIENCE, published 2023).
Substitutions are numbered along the chain they refer to. Like-named read-outs stand apart in the source and are kept apart here.

B1: chimeric antibody 42D20 xiIgG (antibody, V domains shown)
VH: QVQLKESGPGLVAPSQSLSISCTVSGFSLIDYGVSWIRQPPGKGLEWLGVIWGDGKIYYNSVLKSRLSISKDNSKSQVFLKMNSLQTDDTAMYYCAKQGGLLFYAMDYWGQGTSVTVSS
VL: DIVMTQSPSSLAMSVGQRVTMNCKSSQSLLNSYSQKNYLAWYQQKPGQSPKLLIYFASTRESGVPDRFIGSGSETDFTLTISSVQAEDLADYFCQQHYNTPFTFGSGTKLEIKR
B2: chimeric antibody 5M21 xiIgG (antibody, V domains shown)
VH: QVQLQQSGPELVKPGASVRITCKASGYTFTTYYIHWVKQRPGQGLEWIGWIYPGNVNTKYNEKFKGKATLTADKSSSTAYMQLSSLTSEDSAVYFCARGLYYFDYWGQGTTLTVSS
VL: SIVMTQTPKFLLVSAGDRLTITCKASQSVSNDVAWYQQKPGQSPKLLIYYASNRYTGVPDRFTGSGYGTDFTFTISTVQAEDLAVYFCQQDYSSPYTFGGGTKLEIKR
B3: 42D20 hz00 (antibody, V domains shown)
VH: QVQLQESGPGLVKPSETLSLTCTVSGFSLIDYGVSWIRQPPGKGLEWIGVIWGDGKIYYNSVLKSRVTISVDTSKNQFSLKLSSVTAADTAVYYCARQGGLLFYAMDYWGQGTLVTVSS
VL: DIVMTQSPDSLAVSLGERATINCKSSQSLLNSYSQKNYLAWYQQKPGQPPKLLIYFASTRESGVPDRFSGSGSGTDFTLTISSLQAEDVAVYYCQQHYNTPFTFGAGTKLELKR
notes: Humanized
B4: 42D20 hz21 (antibody, V domains shown)
VH: B3 VH with D54E, V71K, T73N, N76S, F78V, R97K
VL: B3 VL with P49S, G74E, V89L, Y93F
notes: Humanized
B5: 42D20 hz01 (antibody, V domains shown)
VH: B3 VH
VL: B3 VL with P49S, G74E, V89L, Y93F
notes: Humanized
B6: 42D20 hz23 (antibody, V domains shown)
VH: B3 VH with D54E, V71K, T73N, N76S, F78V, R97K
VL: B3 VL with S32T, P49S, G74E, V89L, Y93F
notes: Humanized
B7: 42D20 hz03 (antibody, V domains shown)
VH: B3 VH
VL: B3 VL with S32T, P49S, G74E, V89L, Y93F
notes: Humanized
B8: 5M21 hz00 (antibody, human IgG1, kappa, V domains shown)
VH: QVQLVQSGAEVKKPGASVKVSCKASGYTFTTYYIHWVRQAPGQRLEWMGWIYPGNVNTKYNEKFKGRVTITRDTSASTAYMELSSLRSEDTAVYYCARGLYYFDYWGQGTLVTVSS
VL: DIQMTQSPSSLSASVGDRVTITCKASQSVSNDVAWYQQKPGKVPKLLIYYASNRYTGVPSRFSGSGSGTDFTLTISSLQPEDVATYYCQQDYSSPYTFGGGTKVEIKR
notes: Humanized
B9: 5M21 hz11 (antibody, human IgG1, kappa, V domains shown)
VH: B8 VH with R72A, T74K
VL: B8 VL with V83L, Y87F
notes: Humanized
B10: 5M21 hz10 (antibody, human IgG1, kappa, V domains shown)
VH: B8 VH with R72A, T74K
VL: B8 VL
notes: Humanized
B11: 5M21 hz01 (antibody, human IgG1, kappa, V domains shown)
VH: B8 VH
VL: B8 VL with V83L, Y87F
notes: Humanized

Experiments:
[1] = target: T1, human Nectin-4 (human, UniProt Q96NY8 32-510); test: cell-based or functional assay
T1 sequence (looked up): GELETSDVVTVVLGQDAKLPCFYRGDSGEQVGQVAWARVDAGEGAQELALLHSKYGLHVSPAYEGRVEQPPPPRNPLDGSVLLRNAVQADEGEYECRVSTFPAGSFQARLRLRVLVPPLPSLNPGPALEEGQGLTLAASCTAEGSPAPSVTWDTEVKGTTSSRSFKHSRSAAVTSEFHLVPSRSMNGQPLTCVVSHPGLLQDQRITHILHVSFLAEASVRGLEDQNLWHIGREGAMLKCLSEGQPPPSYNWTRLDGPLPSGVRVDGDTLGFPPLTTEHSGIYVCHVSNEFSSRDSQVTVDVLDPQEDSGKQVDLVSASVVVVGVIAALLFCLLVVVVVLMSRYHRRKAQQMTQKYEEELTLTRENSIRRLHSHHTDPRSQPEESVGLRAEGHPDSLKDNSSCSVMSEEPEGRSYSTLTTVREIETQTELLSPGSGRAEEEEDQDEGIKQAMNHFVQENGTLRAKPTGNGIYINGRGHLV

[2] = target: T1, human Nectin-4; test: FACS on BT474 cells
Protocol: (§1) The solutions of different concentrations were added to 384-well plates, 10 µl per well.
(§2) BT474 cells (breast cancer cells) expressing Nectin-4 on the cell surface were collected by centrifugation at 100 g at room temperature for 5 minutes, and then the cells were washed with PBS containing 0.5% BSA once and were centrifuged at 100 g at room temperature for 5 minutes. […] After incubation at 4° C. for 1 hour, fluorescently labeled goat anti-human IgG secondary antibody was added. After continued incubation at 4° C. for 1 hour, mean fluorescence readings of the cell populations were analyzed by a flow cytometer.
(§3) The experiment results of the binding of engineered humanized molecules of the present disclosure to BT474 cells by FACS assay are shown in panels 3B and 3C in FIG. 3 and Tables 6 and 7.

[3] = target: T2, His-tagged human NECTIN4 (human, UniProt Q96NY8 32-349); test: SPR (BIAcore S200), antigen on CAP chip, antibody as analyte, 1:1 fit
T2 construct: Antigen of the BIAcore assay; also called antigen; recombinant NECTIN4 protein; not shown: His tag
T2 sequence: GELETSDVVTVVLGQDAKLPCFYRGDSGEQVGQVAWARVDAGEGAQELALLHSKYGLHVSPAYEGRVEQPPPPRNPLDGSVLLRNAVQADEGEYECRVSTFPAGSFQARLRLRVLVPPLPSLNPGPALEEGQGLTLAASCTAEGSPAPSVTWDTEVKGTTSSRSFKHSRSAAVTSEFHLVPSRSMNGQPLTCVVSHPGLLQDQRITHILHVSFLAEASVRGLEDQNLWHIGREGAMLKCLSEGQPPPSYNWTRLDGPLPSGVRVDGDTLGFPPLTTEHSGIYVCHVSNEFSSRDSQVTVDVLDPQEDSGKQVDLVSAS
Protocol: Interactions between the antibodies and the antigen were measured using a BIAcore instrument S200 from GE. Referring to the instructions provided in Biotin Capture Kit from GE Healthcare, the analytical channel and the control sample channel on CAP sensor chip were first coupled with antigen i.e. His-tagged human NECTIN4, then samples containing antibodies (diluted 3-fold from an initial concentration of 20 nM respectively and solutions of each antibody of 8 concentrations were obtained totally, and the concentration 0.741 nM was set to be repeated) were allowed to flow through both the analytical channel and the sample channel, and the photoreactions upon antibody-antigen binding were measured. Association constant Kon and dissociation constant Koff and affinity constant KD of each antibody were finally obtained by instrument software fitting (1:1 binding mode) analysis.

[4] = target: T1, human Nectin-4; test: FACS on BT474 cells; remark: listed apart in the source
Protocol: as §1, §2, §3

[5] = target: T1, human Nectin-4; test: cell-based or functional assay; remark: listed apart in the source

Endocytosis efficiency (%) [1] [%] | EC50 [2] [µg/mL] | EC50 [4] [µg/mL] | Endocytosis efficiency (%) [5] [%] | also measured | Binder
54 | 0.077 | – | – | Kd [3]: 1.01 nM; koff [3]: 0.000798 s⁻¹; kon [3]: 790000 M⁻¹ s⁻¹ | B1
– | – | 46.1 | 56.9 | – | B2
39.1 | 1.34 | – | – | – | B3
43.9 | 0.285 | – | – | – | B4
41.5 | 0.132 | – | – | – | B5
45 | 0.0503 | – | – | – | B6
41.1 | 0.0676 | – | – | – | B7
– | – | 52.2 | 54.8 | – | B8
– | – | 44.5 | 64.4 | – | B9
– | – | 44.3 | 64.8 | – | B10
– | – | 48.1 | 62.2 | – | B11
